Measurements: patent publication US20140308259A1 (University of Pennsylvania, published 2014)

T1: human B7-H4 at the cell surface (human, UniProt Q7Z7D3 25-282)
T1 sequence (looked up): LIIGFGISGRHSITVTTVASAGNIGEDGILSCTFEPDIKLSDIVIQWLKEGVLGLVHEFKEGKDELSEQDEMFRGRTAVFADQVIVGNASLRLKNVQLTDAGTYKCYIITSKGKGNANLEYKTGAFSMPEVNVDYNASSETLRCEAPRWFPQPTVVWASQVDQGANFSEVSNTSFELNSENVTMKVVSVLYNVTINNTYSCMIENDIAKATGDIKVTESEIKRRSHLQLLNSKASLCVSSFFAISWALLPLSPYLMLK


Biological target: T1, human B7-H4 at the cell surface
Assay: cell-based or functional assay

Binder | IFN-γ production of MART-1 TCR T cells in presence of B7-H4+ TAMs [folds]
anti-B7H4 scFv clone 3#68 (scFv) scFv: QPGLTQPPSASGTPGQRVTISCSGSSSNIGSNYVYWYQQFPGTAPKLLIYRNNQRPSGVPDRFSGSKSGTSASLAISGLRSEDEADYYCAAWDDSLSVWVFGGGTKVTVLGGSSRSSSSGGSGSGGGGQVTLKESGAEVKNPGSSVKVSCKASGGTFSSYAISWLRQAPGQGLEWMGWINPNSGGSDYAQRFQGRVTMTRDTSINTVYMELSRLRSDDTAVYYCARVEKRGYYYGMDVWGQGTMVTVSSFEGSEQ | > 2
anti-B7H4 scFv clone 3#54 (scFv) scFv: RPVLTQPPSAAGTPGQRVTISCSGSSSNIGSNYVYWYQQLPGMAPKLLIYTNNQRPSGVPGRFSGSKSGTSASLAISGLRSEDEADYYCAAWDDSLNGWVFGGGTELTVLGGSSRSSSSGGGGSGGGGQVQLQESGPGLVKPSETLSLTCNVSGRSVSSGFYWSWIRQRPGKGLEWVGSIYRSGLTYYNPSLKSRVTISVDTSKNQFSLKLSSVTAADTAVYYCARATPWYYYGMDVWGQGTTVTVSSFEGSEQ | > 2
